Assay: label from the status in PepcDB records

| Sequence | protein production |
| --- | --- |
| MVFIMENTNKIASLELGRLLAMFAIIALHSQVFMTYLLMDDFPVFGNIFNQLTRFAVPFFFILSGYFIQPKLTHTPLKTIQSYCAPLFKIWIVWSVLSLALPFHWRKVAENGYLAERTGYWNWLTQNPLNALFEGGMVHLWFIPALIIAVSIIGLLIHFKKTTWLIPIAVILYVYGLAGGSYQTLTEVWTPFFTRNGPFFSTLMVVIGFELRRREITLSSTNALILLLVGFAIHFSEAYWLTQFDVPFNLHDFLIGTPLMGIGVFFLLLSKPQLGHHPITFTLSKHVLGIYVCHLLFVVVFLNITGMMGITLAMRDFVIVFGTATASTLFVLIMDKTPFRQMLFR | failed |
| NQLLTQQANEDGLTKLFNRRYIDQKLDSMVAWHGRHHMPMAMILLDVDFFKPFNDNYGHIEGDRCLQAIANQLKATFCRSGEYVGRYGGEEFVVLLSSTDAQTAEREAERIQEAMYFLDYQHEFSSVANRVTVSQGVFVFQPTGKENQADLYATADRALYTSKSLGRNTYTMVNAS | not failed |
| MKHCLKFALLAGFALLLTACGFHLRGLGGSLKPLPFSTMYLEATGKSIEADLRTVFARDPKLSVMSEPKGAQAVVSVVSENQSKDILTINTGGRINEYQLTYTVVVRTVIGGVPVDPDMVVTVRRSLNYSDNQVLGKQQEEDLLWADARRDAAEQIVRRLAYLKVPAAPLAGPVSVKPDAVPQPLEHHHHHH | not failed |
| MSIIFILKMSKQSEQILEEQLLIQLHKLGYEKVILPNEDALLLNLKKQLEKHNKITFSKAEFDKVLNIVNKGSVFEKAKILRQRQHIIRDNGDNLYFEFLNTDYWCQNEYQVTNQLSQEGRYLNRYDVTLLINGLPLVQIELKRRGLELKEAFNQIDRYRKHSFGSGHGLYHFVQLFVISNGVNTKYFGNFGIHKQEYLQTFHWTDENNKPLNNILNGFTDTFLEPCHISKMICKYIVLHETEKKLMVLRPYQYFAVENIIKKVKENEVLNGYDINKNGYIWHTTGSGKTLTSFKASQILSNIPAIKKVVFVVDRKDLDYQTNQEYEKFSQGCVSSVGNTDDLIKKFNDPAERIIVTTIQKLNNAISGKNIYKMKAMQDQRMVFIFDECHRSQFGDTHKNIVSYFTNIQLFGFTGTPILVENANGEKTTASLFGKCLHKYVITDAIRDENVLRFSVEYIQTFKQKEHIVDLKIEQINETEVFEAPERKEAIVNYILQHHKQKTQQGKYCAMMCVQDIDSVIQYYEILKAMKKAGEHQLKIITIFSFAQNEDPLDYEIKTELSVVEEPKALYGLPPHRRELLDAYIGDFNQLYDTAHSTKDSQSFYTYYNDVAKKAKNNEMDILLVANMFLTGFDSKYLNTLYVDKNLQYHGLIQAFSRTNRTHDKNKTQGNIVCFRNLKDKTDEAITLFSNREAIDEVIVAPYETYVEEFNKAVNQLKAIVPNVDSVDDLYTEEDQLKFILAFRNMIRLHKKMSHYTEFTWDDLEIEEQSFLDYSSKYQDLKDSIVHKSDKEKTSILDDIDFELELIKKDTINVSYIVQLLFKLKVKKGKKDKEEVEKEIFNLLNTEVSLRSKRELIEKFIKENMSKIVEAEDIVDEFTRFWNEEQQKAFDELVQDENLSAERTQHLIEGYLFSEQEPLRDEILKLRNEGRPSALQAKDISNRILQRIKDFVNTFINGMNIAA | failed |
| GKVYTINSGPIYANPIIHHQVNEKIGYLVYSAFESGFDQELFDVFKEFKSQNITELILDLRYNGGGDVTSANLISSCIAGDLCIDKTFASYRYNDERMKVLGNQRPIQKFAYSQYDNLSTSLSAGGLNLRKIYCLVTDDSASASELVINALRGIDIEVILIGTTTHGKNVGMEGVELTAGTDKYLLFPITFQAYNAKGFGDFENGFTPDYEINENKPNGEYFEGYGDFGAESDPLYAKAISLISGNEVTT | failed |
| GHPTEVLCLMNMVLPEELLDDEEYEEIVEDVRDECSKYGLVKSIEIPRPVDGVEVPGCGKIFVEFTSVFDCQKAMQGLTGRKFANRVVVTKYCDPDSYHRRDFW | not failed |
| MKRVVEAWDRFQIPLYITALIAGALVGLQWPGSTGGFESAINPALMALLYATFLGIPITRIGAALKDLRFLIVLMSVNFVAVPLVAFALSRFIAGDEALLIGFLLVILAPCIDYVIVFAGLARAAQDKLLAATPILMLVQILLIPVFLAVFVGSDALGSISFGPFVEAFFLLILIPLVAAAGTQQVARKWQVGRTIMAAAEAIMVPLMMLTLFAVIASQVEAVSGQFTDIATVVPLYVAFLMVMIPIGGGISKLGGLGFKEQRAIVFSGATRNSLVVLPLALALPAGLEIAAVVVVTQTLVELIGMVVYVRIIPLIFHEKQTYRKLSGIGES | failed |
| MGHHHHHHSHMPLVKRNIDPRHLCHTALPRGIKNELECVTNISLANIIRQLSSLSKYAEDIFGELFNEAHSFSFRVNSLQERVDRLSVSVTQLDPKEEELSLQDITMRKAFRSSTIQDQQLFDRKTLPIPLQETYDVCEQPPPLNILT | not failed |
| MSSLTIILIAAISAVLAFLIIFLLKSILFPKKRARIEKNLKSGKYGAAIKDAKSILSKNPRDSEARYLLGKAYLADKKVDLAFIEFKTLNKTAVFNNPATEIEFRTIIADLYLKFQQPDEALKEFMLLNKRDPKNPKPYFQAGQIYESKNMSDQAIAYFQKAIEVDSRFAEAYASLGLLLFKANQIPEAEKAIATALKLAPDNSETLYYHGKILKSKKNYAQALSALEKAARKQEIRSKCFFERGCCYLETNSLEKAEFEFTRAIKSSKQLSAPEVLYSRYLLADCYERQRNIDQAIEQWEAISAVNPKFRNTAQKLAEYSDLRTNDHMKEYLTLIKEEFFKMCRDITEQYFDYPVQALKETKMGCTILAVEKGSEQWLNTRKKPQLLIFSRDGHTITESFLRSVHEEMKKQAVVTSHIITSGAFSPDAIKFAENRPFNLIDRQKLERIVEKVKFTF | failed |
| MMRDSPSIQGTLDAATQHALLAGRHADPFSVLGPHQAGAHTVVRVLAPGARTVMAVLPGGQRTPLLPMQPGLFENTVPGLQPGAPAAYRLCIEWEGGIQHTADPYAFGPVLD | failed |
| MDDSMTSIKVHCLVSCFCEIIKRRSDIDFRPFYFGLWDGDFDITEGGIISYHSENINHDHYLLWYEKLYGMKVNEWYDHAKDKDSNVETFLQLVENKPENRYVIVMVDMSLLPERENKFHQKPFPHYLMISETEKEEEWFMLDPDFRWEGNMEREKVLYSVQDNPFGGGYFIDVEEIQEPTAEMVASYFIETFKRNDNELTMELKNLIIKMANEEEGYLLSGLVAAVKQIPVLAIRKYSYEHAFAYFRETLQYSEQEFDYWCDRVEDIVQGFTNVQYRAIKMAMTNNKGMLLSIVEKLDEMNAIELQIKTELERQFLSWKEMKSNESVLVF | failed |
| MCFPYNKTVAMLAVLMLSGCEDQAALRNADNPPSPPAARMTEFGPGTEDATITQHPYMDNRHAINEGKRLYSWFNCTGCHAHGGGGMGPPLMDKQWIYGSEPAQIFASIMEGRPNGMPAFHGKIPEQEVWKIVAYVRSLGGLSKDLPAGASSRPLQEQAESDKREVKTP | failed |
| MTWLLFGAGNGVGGCLLQRAIECEQAVVLVLRNPEQAKHWREQGVTVVEGDACDPETVAEACRVAGPSAIVVSTMGGGTVNYQGHRTVIDGAEQAGIKRMLLVTSLGCGDSWPLLSPRARAAFGFAVREKSLAESWLQSSTLDHCIVRPGGLLDVVATHNAKLTQGAATLGLVSRSDVALAVDQLLQQPVFGNHIYNLIDPDLTMPAIPLEHHHHHH | failed |
| MTNNPLGRIIPQQPPIEPQSDAHVLKSRLEWGEPAFTILDVRDRSTYNDGHIMGAMAMPIEDLVDRASSSLEKSRDIYVYGAGDEQTSQAVNLLRSAGFEHVSELKGGLAAWKAIGGPTEGIIESRTPAGADDYNVVSRMQNHLENQKKEV | failed |
| MKLAIVTACPGGQVTSVLAARLLRGAAERLGWETCVEANAGSRPEGELSAEQIAEADWVLLVGVEPLAAARFVGKPVYRARPAEALADPRAFLQRAAALASVEVAGDEAGLVAPEAGAAPRIVAVTACPTGVAHTFMAAEALQLAAGQLGFALQVETQGSVGARNPLDPADIAAADVVLLAADIDVDTARFAGKKIYRCGTGVALKQARATLERALAEGQVESAGAASAVVARDEKRGVYKHL | failed |
| MQMIKPPVQRHSHRRHRLLRSLGHQFSFGFFALCEKQRECKCDMATVMTTNLYNVARHSPHPIIFVCGSWSSLIESLIESAKEEEESMRRRS | failed |
| MNSLINIFNQYSELAIFISLFISVIIALLGIVPSVFVTGANIVFFGPINGFLISLLGEVIGGWISFKVYRKGINKFAGNIEGKYELIDKIVKSEGRNVGILIFEGRLIPFIPSGLVTLAAAMSKVNSFTFIISTFLGKIPSILLEVLASYGVIMASQKNLKLVIGVLSLILFLLTLKKLKDKTNKK | failed |
| MSLTGTDFHVGIVGLGSMGMGAARSCLRAGLSTWGADLNPQACANLLAEGACGAAASAREFAGVVDALVILVVNAAQVRQVLFGEDGVAHLMKPGSAVMVSSTISSADAQEIAAALTALNLNMLDAPVSGGAVKAAQGEMTVMASGSEAAFTRLKPVLDAVASNVYRISDTPGAGSTVKIIHQLLAGVHIAAAAEAMALAARAGIPLDVMYDVVTHAAGNSWMFENRMQHVVDGDYTPRSAVDIFVKDLGLVADTAKALRFPLPLASTALNMFTSASNAGYGKEDDSAVIKIFSGEGHHHHHH | not failed |
| MDPFASLAEAYEAWYGTPLGAYVIAEEERALKGLLPPGESLLEVGAGTGYWLRRLPYPQKVGVEPSEAMLAVGRRRAPEATWVRAWGEALPFPGESFDVVLLFTTLEFVEDVERVLLEARRVLRPGGALVVGVLEALSPWAALYRRLGEKGVLPWAQARFLAREDLKALLGPPEAEGEAVFLAPEAHPPYEEADLAGRRAGNRPALYLGRWR | not failed |
| MLLENFYKIIHIKEREDGKQEIEIELNPGHVLYQGHFPGQPVVPGVCTLQIIKESAEQIASQPLQYVQIASSKFLSAINPLETPLLQLFIRLEKTEEHLFKLQAEGICNGKEFIKLKAVLMASKYQLEHHHHHH | not failed |
| MSAPQVWPWTNQTPPLKGDPTPEPKPQERPTRLKHPLDAPHSVYGVDKWGKGLIVVTEEGEIGLKNPLRPEADAVSLPGILHDLEQRGIRAPMILRISSYLENEICHINDSFADAIARSGYKGAYRGVFPIKVNQQAQVIDRIVEFGHRYSYGLEAGSKPELVIALAHKLATDALIVCNGVKDAEFVRLAILSRKLGFNTVIVLESPKEADTVIAVYEELGIEPLLGVRVKLTNQISGKWEESSGDRSSFGMNTDQLVRVVDKLRDAGLIHCLKLQHSHLGSQVPDVNDVRRAVGEACRYFTELSAEGVPLTHLDLGGGMGVDYTGEKRATENSINYTVEEYCANVVETVAYAMDEAGIDHPTIVTESGRAVVATSSLLVFNVLESTLYDAPTAPGTEPDDHHLVSDLAAVNGYLTPARLQECWNDATFYRNELRALFRRGYVDLRQMARAERIYLSLMARIKTMVAEVEAETDLDAQMEKIADIYHCNFSLFQSLPDVWAIDQLHPIVPLQMLNEAPDRRAVLSDITCDSDGKVDRFILADGVSPSLPVHSLPEDQDYYLGVFFVGAYQETLGDLHNLFGDTNVVTIDLRADGGFDLLHEQEGDTISEVLSYVEYDPADCVAAFRKLVDGAISNGCLKASERKLIIGAYRDSINGYTYYE | failed |
| MSTIEERTPGAVATEPVGHEGARVSINEKNVWSLGAGPAAFALLAMIVLMIASGVFFAQSINTLENDGGGTLAVTGLIASIVVFTVALVVTITSVKVVSPGHTLTVQFFGRYIGTLRRTGLSFVPPLSVTKKVSVRVRNFETNEAKVNDYNGNPINIAAIIVWQVADTAQASFSVEDFEEFLHQQAESALRHVATQHPYDSPVDGRVSLRGATDEVSEELADEVAQRAAVAGLEIVEARISSLSYAPEIAQAMLQRQQASAIVDAREKIVEGAVTMVETALDQLEQREIVDLDPERRAAMVSNLLVVLCSDTNAQPIVNAGSLYQ | failed |
| MSEVQITFRKAREQDLMTYFNWANDEVTRKNSFGTNKIDLKTHTEWFLKKISSPDSLLLVFEDAAKIPVGQVRIECGEEEAVIGISIDSAFRGKSLSAFMIDSACTEYFRNFTKPIAAHIKATNTASVKAFEKAGFILKEEYTVDQELRFILLRQHV | failed |
